Measurements published in patent US20100016556A1 (published 2010).

Target: T1, CD3 on Jurkat cells (human, UniProt P07766 23-207)
T1 construct: whole, on cells; the CD3 complex has several chains; also called T cells (Jurkat); J6 cells
Test: binding to J6 cells; method not described

T1 sequence (P07766 23-207): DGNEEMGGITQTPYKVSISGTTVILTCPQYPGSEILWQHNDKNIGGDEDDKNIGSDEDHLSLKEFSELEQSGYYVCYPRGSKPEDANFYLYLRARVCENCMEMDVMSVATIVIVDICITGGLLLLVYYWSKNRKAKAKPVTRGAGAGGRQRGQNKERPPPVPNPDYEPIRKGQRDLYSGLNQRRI

B1: BsF(ab')2 v1 (anti-p185HER2/anti-CD3 v1) (bispecific antibody)
chain 1: not shown
chain 2: not shown
chain 3: DIQMTQSPSSLSASVGDRVTITCRASQDIRNYLNWYQQKPGKAPKLLIYYTSRLESGVPSRFSGSGSGTDYTLTISSLQPEDFATYYCQQGNTLPWTFGQGTKVEIK
chain 4: EVQLVESGGGLVQPGGSLRLSCAASGYSFTGYTMNWVRQAPGKGLEWVALINPYKGVTTYADSVKGRFTISVDKSKNTAYLQMNSLRAEDTAVYYCARSGYYGDSDWYFDVWGQGTLVTVSS
modifications: hinge Cys thioether-linked through o-PDM to the other Fab' arm
  Kd: 140 nM
